Laboratory results taken from the nanobody polyreactivity screen of Harvey et al. (2022).

Experiment: yeast display, Sf9 membrane polyspecificity reagent, FACS + sequencing; frameworks hold sequencing errors
In short: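 Galactose induction of a Saccharomyces cerevisiae BJ5465 synthetic nanobody display library ran 36–48 hours. The cells were then stained for 1 hour at 4 °C with 10% biotinylated, detergent-solubilized Sf9 membrane reagent, pulled down on streptavidin microbeads and FACS-sorted into low and high (top ~1%) gates on expression and reagent-binding fluorescence. Labels for polyreactivity follow the gate of origin.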

Row | Sequence | polyreactivity (PSR sort gate)
1 | QVQLVESGGGLVQAGGRLRLSCAASGRTFYVYTMGWYRQAPGPERELVAAIPSGGSTNYADSVKGRFTISRDNAKKTVYLQMNSLKPEDTAVYYCAARDSTVFKRYYYWGQGTQVTVSS | high polyreactivity
2 | QVQLVESGGGLVQAGGSLRLSCAASGSTFQSNAMGGYRQAPGKERELVAAISSSAGTTFYADSVKGRFTISRDNAKNTVYLQMNSLKPEDTAVYYCAAEYSRSYIEYDYWGQGTQVTVSS | low polyreactivity
3 | QVQLVESGGGLVQAGGSLRLSCAASGRTFRVYAMGWYRQAPGKERELVAAISWSGGTTYYADSVKGRFTISRDNAKNTVYLQMNSLKPEDSAVYYCARRSRGSSYNYWGQGTQVTVSS | high polyreactivity
4 | QVQLVESGGGLVQAGGSLRLSCAASGNIFRYNAMGWYRQAPGKERELVAAISRGGSTKYADSVKGRFTISRDNAKNTVYLQMNSLKPEDTAVFYCARVKSTGSTFASPYDYWGQGTQVTVSS | high polyreactivity
5 | QVQLVESGGGLVQAGGSLRLSCAASGSIIRKYAMGCYRPAPGKERELVAAITSGGRTYYADSVKGRFTISRDNAKNTVYLQMNSLKPEDTAVYYCNARVRGYYEYNYWGQGTQVTVSS | high polyreactivity
6 | QVQLVESGGGLVQAGGSLRLSCATSGRTLGGYAMGWYRHAPGKERELVASITSTSSTYADSVKGRFTISRDNAKNTVYLQMNSLKPEDTAVYYCAADPRRYRGFGYVYGGFYYWGQGTQVTVSS | low polyreactivity
7 | QVQLVESGGGLVQAGGSLRLSCAASGFTFGIYAMGWYRQAPGKERELVAAITSGGITKYADSVKGRFTISRDNAKNTVYLQMNSLKPEDTAVYYCAATGYRQSYDSTWYRYDYWGQGTQVTVSS | low polyreactivity
8 | QVQLEESGGGVVQAGGSLRLSCAASGRIFNYYTMGWYRQATGKERELVARINSSGSTNLRRLCEGALHNFTRQCEVYRLFTDEQPETGRYRVYYCNADTKRSSREYEYWGQGTQVTVSS | low polyreactivity
9 | QDQLVESGGSLVQAGGSLRLSCASSGSIFKGNVMGCYRQAPGKERELVAAITWSAGSTYYADSVKGRFTISRDNAKNTVYLQMNRLKPEDTAVYYCNTDRYHGVDFDYWGQGTQVSVSS | high polyreactivity
10 | QVQLVESGGGVVQAGGSLRLSCAASGSTFRPYAMGWYRQAPGKERELVAAITFNGDTYADSVKGRFTISRDNAKNTVYLQMNSLKPEDTAVYYCAARNWYYYLRPWTSVGGYYWGQGTQVNVSS | high polyreactivity
11 | QVQLVESGGGLVQAGGSLRLSCAASGLIFKYYAMGWYRPAPGKERELVAAITGRGGSTYYADSVKGRFTISRDNAMNTVYLQMNSLKPEDTAVYYCARRRTYSFNPVTYDWGQGTQVTVSS | high polyreactivity
12 | QVQLVESGGGIVQAGVSLRLSCAASGGTLCTYAMGWYRQAPGKERELVASIDSGDSTYYADSVKGRFTISRDNAKNTVYLQMNSLKPEDTAVYYCAAAYFRRYTTTWYGYEYWGQGTQVTVSS | low polyreactivity
13 | QVQLVESGGGLVQAGGSLRLSCAASGSIFVYNAMGWYRQAPGKERELVASITWSGGRTYYADSVKGRFTNSRDNAQNTVYLQMNSLKPEDTAVYYCAADSPRGYDYWGQGTQVTVSS | high polyreactivity
14 | QVQLQESGGGLVQAGGSLRCAASGNISTRSEMGWYRQAPGKEREFVATINSGGITNYADSVKGRFTISRDNAKNTVYLRMNCLKPEDTAVYYRAVYGYFSDPYDYWGQGTQVTVSS | low polyreactivity
15 | QDQLVESGRGLVQAGGSLRLSCAASGNTFYRYTMGWYRQAPGNERELVDAISGRGGSTTYADSVKGRFTISRDPAKNTVYLQMKSLIPEDTAVYYCAAVTGGTAYYASTYYYWGQGTQVTVSL | high polyreactivity
16 | QVQLVESGGGLVQAGGSLRLSCAASGYIFRIYAMGWYRQAPGKERELVATITNGGSTHYADSVKGRFTISRDNAKNTVYLQMNSLKPEDTAVYYCAADLLYSEYDYWGQGTQVTVSS | high polyreactivity
17 | QVQLVESGGGLVQAGGSLRLSCAASGRIFRYYTMGWYRQAPGKERELVAAITWSGGSTYYADSVKGRFTISRDNAKNTVYLQMNSLKPEDTAVYYCAVVYSPSMDYWGQGTQVTVSS | high polyreactivity
18 | QVQLVESGGGLVQAGGSLRLSCAASGFTFPEYSMGWYRQAPGKERELVAAITRRGTTTYYADSVKGRFTISRYTAKNTVYLQMNILKPEDTAVYYCAALAWSAYDYWGQGTQVTVSS | high polyreactivity
19 | QVQLVESGGGLVQAGGSLRLSCAASGSTFSVNAMGWYRQAPGKEREFVARITWRGGSTYYADSVKRRFTISRDNAKNTVYLQMNSLKPEDTAVYYCAATLRYWWRSSYEDYYWGQGTQVTVSS | low polyreactivity
20 | QVQLVESGGGLVQAGGSLRLSCAASGFISPGYAMGWYRQAPGKERELVAAITRDGGTYYADSVKGRFTISRDNAKNTVYLQMNSLKPEDTAVYYCAAEGSFRKFDYWGQGTQVTVSS | low polyreactivity
21 | QVQLVESGGGIVQAGGSLRLSCAASGIIFWNYTMGWYRQAPGKERELVAAISVSGGSTYYADSVKGRFTISRDNAKNTVYLQMNSLKPEDTAVYYCAAEWIYPSPHYEYDYWGQGTQVTVSS | high polyreactivity
22 | QVQLVESGGGLVQAGGSLRLRCAASVRIFRVYAMGRYSQAPGKERELVAAISSSGGSTYYADSVKGRFTMSRDNAKNTDYLQMNSLKPEDTAVYYCAAGGLHTIQRPGYYYWGQGTQVTVSS | low polyreactivity

Row | Sequence | polyreactivity (PSR sort gate)
23 | QVHLVESGGGLVQAGGSLRLSCAASGSILSINGRGWSRQAPGKERELVATIDGSDGSTFYADSVKGRFTISRDNAKNTVYLQMNSLKPEDTAVYYCAAENFWQTKEYDYWGQGTQVTVSS | low polyreactivity
24 | QVQLEESGGGLVQAGGSLRLSCAASGSTFNDYAMGRYRQAPGKERELVAAISSSGGITYYADSVKGRFTISRDNAKNTVYLQMNSLKPEDTEVYYCAASGRDWSWYDYWGQGTQVTVSS | low polyreactivity
25 | QVQLVESGGGLVQAGGSLRLSCAASGITFRKYAMGWSRQAPGKERELVAAISAGGGRTFYADSVKGRFTISRDNAKNTVYLQMNSLKPEDTAVYYCNADLGIGYDYWGQGTQVTVSS | high polyreactivity
26 | QVQLVESGGGLVQAGGSLRLSCAASGRIFSRYAMGWYRQAPGKERELVAAISWSGGSTYYADSVKGRFTISRDKAKNTVYLQMNSLKPEDTAVYYCAAKRQYTEYNYWGQGTQVTVSS | high polyreactivity
27 | QVQLVESGGGLVQAGGSLRLSCAASGRIFYPNAMGWYRQARGKERELVAGISSGGGRTYYADSVKGRFTISRDNAKNTVYLQMNSLKPEDTAVYYCATVGRGYDERHNYWGQGTQVTVSS | high polyreactivity
28 | QVQLVESGGGLVQAGGTLRLSCAACGFTFSSYAMGWYRQAPGKERELVAAITYRGGSTYYADSVKGRFTISRDNAMNNVYLQMNSLKPEDTAVYYCAARWGYRMYWGQGTQVTVSS | high polyreactivity
29 | QVQLVESGGGLVEAGGSLRLSCAASGSNFPWNAMGWSIQAPGKESDLVAGISSRGGSTYYADSVKGRFTISRDNAKNTVYLQMNSLKPEDTAVYYCNAAAVRRGRLVKLDYWGQGTQVTVSS | high polyreactivity
30 | QVQLVESGGGLVQAGGSLRLSCAASGSIFHRNTMGWYRQAPGKERELVAAIRRGGSTYYADSVKGRFTISRDNAKNTVYLQMNSLKPEDTAVYYCAADFPGEYYYWGQGTQVTVSS | high polyreactivity
31 | QDQLVESVGGLVQAGGSLRLSCAASGRIFWVNAMGWSRQAPGKERELVAAISWTSGSTYYADSVKGRFTISRDNAKNTVYLQMNSLKPEDTAVYYCNKVQSGEYDYWGQGTQVTVSS | high polyreactivity
32 | QVQLVESGGALVQAGGSLRLSCAASGSTFHRNAMGWYRQAPGKERELVAAITSGGSTNYADSVKGRFTISRDNAMNTVYLQLNSLKPEDTAVYSCAKDYRHYNRGWYDYWGQGTQVTVSS | low polyreactivity
33 | QVQLVESGGGLVQAGGSLRLSCAASGSIFDDNAMGWYRQAPGKERELVATINYGGGRTSYADSVKGRSTISRDNAKNTVYLQMNSLKPEDTAVYYCAADPRQKEDYWGQGTQVTVSS | low polyreactivity
34 | QVQLVESGGGLVQAGGSLRLSCAPTGFTIGWYAMGWYRQAPGKERELVATISWSGSSTYYADSVKGRFTISRDNAKNTVYLQMNSLKPEDTAVYYCNAVYGRFVVLRYDYWAQGTQVTVSS | high polyreactivity
35 | QVQLVESGGGLVQAGGSLRLSCAASGSIFGAYVMGWYRQAPGKERELVAAITRRGGSTYYADSVKGRFTISRDNAKNTVYLQMNSLKPEDTAVYYCAARRGAGDGYWGQGTQVTVSS | high polyreactivity
36 | QVQLVESGGGLVQAGGSLRLSCAASGFTFDWYAMGWYRQAPGKERELVAAISSSGRTNYADSVKGRFTISRDNAKNTVYLQMNSLKPEDTAVYYCNRDYPYIWHKGARYWHENDYWGQGTQVTVSS | low polyreactivity
37 | QVQLVESGGGLVQAGGSLRLSCAASGSIYVWYDMGWYRQAPGKERELVDTISLSGVSTYYADSVKGRFTISRDNAKNTVYLQMNSLKPEDTAVYYCAADFVEQGEDDYWGQGTQVTVSS | low polyreactivity
38 | QVQLVESGGGLDQAGVSLRLSCAATGRIFYHYAMGWYRHEPGKERELVASITTSGDSTYYADSVKGRFTISRDTAKNTVYLQMNSLKPEDTAVYYCAARSYRGSRYDYWGQGTQVTVSS | high polyreactivity
39 | QVQLVESGGGLVQAGGSLRLSCAASGRTIQTYTMGWYRQAPGKERELDAVITTRGGRTYYADSVKGRFTISRDNAKNTVYLQMNSLKPEDTAVYYCNKGIPTRSVRSYDYWGQGTQVTVSS | high polyreactivity
40 | QVQLVESGGGLVQAGGRLRLSCAASGSTSTLYAMGWYRQAPGKERELVAAISKSGGRTYYADSVKGRFTSSRDNAKNTVDLQMNSLKPEDTAVYYCAALAVYPRRFDYWGQGTQVTVSS | high polyreactivity
41 | QVQLVESGGGLVQAGGSLRLSCAASGSIFDFYAMGWYRQAPGKERELVAAITWSGDTTYYADSVKGRFTISRDNAKNTVYLQMNCLKPEDTAVYYCAAEGWYWWYGRDYYWGQGTQVTVSS | high polyreactivity
42 | QVQLVESGGGLVQAGGSLRISCAASGGTFVPYAMGRSRQAPGKERELVARISKRGGTTYYADSVKGRFTISRDIGKNTVYLQMNSLKPEDTAVYYCAAVLPARGYYWGLGTQVTVSS | high polyreactivity
43 | QVQLVESGGGLVQAGGSLRLSCAASGFIFWLYAMGWYRQAPGKERELVATITYSDGSTYYADSVKGRFTISRDNAKNTVYLQMNSLKPEDTAVYYCAAEVYYGYDYWGQGTQVTVSS | low polyreactivity
